B1: Anti-Prog-5B3mut1 (antibody, V domains shown)
VH: QVRLQESGPSLVKPSQTLSLTCTVSGFELTSKAVGWVRQAPGKVPEWLGSIVSGGATYYDPALKSRLTITRDTSKSQVSLSISSVSSEDTAEYWCVRASYAAGIWYFDYWGPGLLVTVSS
VL: QAVLTQPPSVSGSLGQRVSLTCSGSSTNIGGGSYVHWYQRLPASGLKTIIYGTSRRPSGVPDRFSGSRSGNTATLTITSLQAEDEADYYCATEDSGSYPFGSGTRLTVLG
B2: Anti-Prog-5B3mut2 (antibody, part only; not given: light chain, part only)
heavy: QVRLQESGPSLVKPSQTLSLTCTVSGFELTSKAVGWVRQAPGKVPEWLGSIVSGGATYYDPALKSRLTITRDTSKSQVSLSISSVSSEDTAEYWCVRASYAAGIWYFDYWGPGLLVTVSSASTTPPKVYPLTSCCGDTSSSIVTLGCLVSSYMPEPVTVTWNSGALTSGVHTFPAILQSSGLYSLSSVVTVPASTSGAQTFICNVAHPASSTKVDKRVGLSSDYSKCSKPPCVSRPSVFIFPPKPKDSLMITGTPEVTCVVVDVGQGDPEVQFSWFVDNVEVRTARTKPREEQFNSTFRVVSALPIQHDHWTGGKEFKCKVHSKGLPAPLVRTISRAKGQAREPQVYVLAPPQEELSKSTLSVTCLVTGFYPDYIAVEWQRARQPESEDKYGTTTSQLDADGSYFLYSRLRVDKSSWQRGDTYACVVMHEALHNHYTQKSISKPPGK

Assays:
[1] = target: Prog-Albumin偶联物(购自益缪诺，货号PROGO2); experiment: indirect ELISA, Prog-Albumin conjugate coated at 3 ug/ml, antibody at 62.5 ng/ml
[2] = target: Prog-Albumin偶联物(购自益缪诺，货号PROGO2); experiment: indirect ELISA, Prog-Albumin conjugate coated at 3 ug/ml, antibody at 31.25 ng/ml
[3] = target: Prog-Albumin偶联物(购自益缪诺，货号PROGO2); experiment: indirect ELISA, Prog-Albumin conjugate coated at 3 ug/ml, antibody at 15.625 ng/ml
[4] = target: Prog-Albumin偶联物(购自益缪诺，货号PROGO2); experiment: indirect ELISA, Prog-Albumin conjugate coated at 3 ug/ml, antibody at 250 ng/ml
[5] = target: Prog-Albumin偶联物(购自益缪诺，货号PROGO2); experiment: indirect ELISA, Prog-Albumin conjugate coated at 3 ug/ml, antibody at 125 ng/ml
[6] = target: Prog-Albumin偶联物(购自益缪诺，货号PROGO2); experiment: biolayer interferometry, AMC sensor, antibody immobilised at 10 ug/ml, Prog-Albumin conjugate in dilution series

Molecule | OD450 [1] | OD450 [2] | OD450 [3] | OD450 [4] | OD450 [5] | Kd [6] | koff [6] | kon [6]
对照 (antibody) | 0.686 OD | 0.319 OD | 0.148 OD | 2.19 OD | 1.85 OD | 9.12 nM | 0.0002 s⁻¹ | 21900 M⁻¹ s⁻¹
B1 | 0.94 OD | 0.566 OD | 0.32 OD | 2.22 OD | 1.92 OD | 0.168 nM | 0.00032 s⁻¹ | 1.91e+06 M⁻¹ s⁻¹
B2 | 1.07 OD | 0.603 OD | 0.36 OD | 2.36 OD | 2.06 OD | 0.33 nM | 0.00027 s⁻¹ | 819000 M⁻¹ s⁻¹
